The supplement of paper PMC12764529
± gives the half width of the 95% confidence interval.

How the values were obtained:
[1] = folding stability dG unfold (combined trypsin and chymotrypsin); higher = more stable
How it was run: (§1)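 Bayesian fitting of sequencing counts gave K50 for each design. Unfolding free energy followed by setting this against a sequence-predicted unfolded-state K50 and a shared folded-state K50, either per protease or with trypsin and chymotrypsin combined. The designs, under 80 residues and lacking cysteine, were digested in a PA-tagged cDNA display format at 11 threefold-diluted protease concentrations and without protease, and only those with AlphaFold2 dimer inter-PAE above 15 were kept.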

[2] = folding stability dG unfold from trypsin proteolysis; higher = more stable
How it was run: as §1

[3] = folding stability dG unfold from chymotrypsin proteolysis; higher = more stable
How it was run: as §1

Sequence	folding stability dG unfold [1] [kcal/mol]	folding stability dG unfold [2] [kcal/mol]	folding stability dG unfold [3] [kcal/mol]
SAGGSEITEEEAEKLKELFPNADITVEKVKPGETKTFPNGFRIEKTEDGYRVTVTLPNGEKLEFPVSAGGSA [r2_166_TrROS_Hall]	1.33 ± 0.11	1.1 ± 0.043	1.37 ± 0.053
SAGGSAGGSDPVPIVITYPDGSTSTTLEPDKIYITYPSKGLKYVVPIDLSTNKISFSLESSLPSAGGSAGGS [r12_539_JUSTAS]	-0.254 ± 0.08	-0.699 ± 0.12	-0.0759 ± 0.11
SAGGSAGGSAGGGSMPLLTETRKSLVVDPETGRLREVTTTTIRFPDRNTSQVTTTVTPVSSAGGSAGGSAGG [r7_196_JUSTAS]	0.41 ± 0.14	0.771 ± 0.063	0.139 ± 0.081
SRKISIWIPPDDPMMTPEEIANKLAQQGYPVEIDDVEWNPENGWVVITVEIEEPNGEPIADIEVWIPWNDSA [r9_879_TrROS]	1.65 ± 0.19	1.83 ± 0.098	1.6 ± 0.057
SALTLEIELEFELEDGYRVTVRARLEFDPETNELTIEVEVRIEPLPPPPPPPETVLVKDENGNWHPLEDLSA [r9_898_TrROS_Hall]	3.27 ± 0.15	3.22 ± 0.14	3.44 ± 0.16
SAGDWELVELRPFRFPNGLEALVAVYRNPADERLVVLTVVREPEGRLVAVALVEFDGDKLVSESVFSPGSAG [r14_828_TrMRF]	3.4 ± 0.12	2.62 ± 0.079	3.755 ± 0.025
SAGGSAGGSEKEIEIELPEGAEIVEIDEEKGVITVRVNGKLIEIEIKPVKVEKVEVELPPEEESAGGSAGGS [r12_243_TrROS_Hall]	2.4 ± 0.17	2.77 ± 0.19	1.73 ± 0.13
SAGALPPDQVVPIPVLVRLSEDDPELREAIERGEVVEFELPGPLRLLAEFEPLPEDLVLVTLYLEVPEGSAG [r5_223_TrMRF]	1.98 ± 0.17	1.28 ± 0.052	2.3 ± 0.062
SAGGPVNKKELVTVPVYYDPETGKFVVKATYPTRPITVPTDETDPVEALARFGTLLEKVTGKPIDTFVGSAG [r5_251_TrMRF]	0.288 ± 0.04	-0.0487 ± 0.083	0.414 ± 0.098
SAGGSAGGSAGGKKYKPVKKIKVNGKTYTIIKKDGKYIIYDEKTKKKIVIKPGEKIKIKSAGGSAGGSAGGS [r10_559_TrROS_Hall]	1.83 ± 0.34	0.621 ± 0.045	2.21 ± 0.034
MRTVLLPIAGLPPEQVREAIERAVRAAREAGQPDTTLIVFNPGPAEQVEETTRLVQELADEPDFTVTVIPIS [r1_387_TrMRF]	0.382 ± 0.14	0.685 ± 0.046	0.0961 ± 0.12
SAGGMTKIEVEYYPEKITVTVTTDNPSENPLDIIKKKTGFKIEGGEVLYPSPNVVVVKLKVDPKDLKKSAGG [r13_498_JUSTAS]	0.799 ± 0.27	0.443 ± 0.11	1.07 ± 0.11
SAGGSAGGSAGMELTLDEIRALLPAEEIEEVEVVEVDGKLVIRVKRKDGKEVRELVIEKDSAGGSAGGSAGG [r17_374_TrROS_Hall]	1.73 ± 0.13	1.63 ± 0.065	1.67 ± 0.054
SAGGSAGGSAGDGWRKASFIIDPNGEILEPIPLPPGVKVEVEPFPGDGMYFVEITIPPDDSAGGSAGGSAGG [r11_32_TrROS]	0.378 ± 0.17	-0.497 ± 0.22	0.684 ± 0.099
SAPKIKEIKEFDPETKKILIKVETPEGEKEIPIPAGGNMTVEEAIEKVKEFLEKELPEGVELEVEEITISAG [r14_422_TrMRF]	1 ± 0.17	0.494 ± 0.12	1.35 ± 0.1
SAGGSAGGSSFEITVYHPDKGKPFKAKVDIEPELVDGDGKPVLVYKAKITIGDKPFEAVFVLNSAGGSAGGS [r20_39_TrMRF]	2.63 ± 0.14	2.14 ± 0.08	2.89 ± 0.043
SAGGSKKPKKIIVIEIPENMTEEEIKKLAEELAKKLNIKKIVKIEKKKDGSVRIVLETKDGKKIEFSAGGSA [r2_168_TrROS_Hall]	2.63 ± 0.16	2.3 ± 0.089	2.84 ± 0.035
SAGGSAGGSAGGEMRLRISWNHPNGQPQVIEFPVGDIKEFLKKLGIDNIPPDKLTNIEPYSAGGSAGGSAGG [r7_745_TrROS]	1.36 ± 0.094	1.25 ± 0.039	1.37 ± 0.092
SAGGSAGGSPDNWITFIFISISYKWKITKWDPENGGWKIEIKDVSIEIEIIRLPADDADKLFKSAGGSAGGS [r12_723_TrROS]	3.85 ± 0.13	2.63 ± 0.079	4.34 ± 0.062
SAGGSAGGSDETLTVTRGRTETVTVRRVERRPPAAAPPLKVTLSAVLDADGRLVSVSASVELLSAGGSAGGS [r12_727_TrROS_Hall]	1.9 ± 0.15	2.1 ± 0.05	1.88 ± 0.036
MLTKVSTLTREDPSTGTTTTITVYKPPDGTLIVKVTTTTYSTTPDGTVTTTTSTTTVTLPPSVDVEKVFSSS [r1_243_JUSTAS]	2.58 ± 0.12	1.76 ± 0.068	3.01 ± 0.056

Sequence	folding stability dG unfold [1] [kcal/mol]	folding stability dG unfold [2] [kcal/mol]	folding stability dG unfold [3] [kcal/mol]
SAGGSAGGSAGKPKVYVKPIVKKGDYVLYLSYYPEEKKIELWVDKFGDKPKRFVKEYPLESAGGSAGGSAGG [r11_738_TrMRF]	1.13 ± 0.068	0.866 ± 0.043	1.25 ± 0.07
SAGGSAGGEPVKIEWEPIGRDPNGAFKFRLIIRDPDGTVQRTEIWINPNGGMQVETETIPPEDNSAGGSAGG [r6_263_TrROS]	2.13 ± 0.14	1.92 ± 0.065	2.15 ± 0.085
SAGGSAGGSASKPYTITLPGNYRIEVYELPDGTYLARIYFPDKPGYYALALLTDNSIYIFPSAGGSAGGSAG [r3_170_TrMRF]	3.47 ± 0.068	3.05 ± 0.07	3.691 ± 0.019
SAGMKKKLYSGEIKEIEEALEKGLSLEEIEEIFSKGANGSLELEEENKKIYIFALEDKKAFLLVEYNPESAG [r5_343_TrMRF]	1.1 ± 0.26	0.441 ± 0.14	1.46 ± 0.19
SAGGSAGGSAGGKKITIKNENGETFTVTEIVKYDEETKEFYIKVEVNGKTYLFKVNLEDLSAGGSAGGSAGG [r7_236_TrROS_Hall]	3.2 ± 0.05	1.81 ± 0.059	3.572 ± 0.024
SAGKITINVMMNPDGNYYVKIRIGGDGEPIMEFPVDSPEDAEEKAKAFADNLAKKYPNYKIEVDYMPFDSAG [r5_383_TrROS]	3.64 ± 0.12	4.23 ± 0.32	3.06 ± 0.066
SAGGGAIVRARFPRDIPELVRAYKILEAAAPDEEVTLLLPEKPVVVVRREKVGDYFLLEVRLPEDLLSAGGS [r16_404_TrMRF]	0.609 ± 0.12	0.647 ± 0.2	0.546 ± 0.15
SAGGSAGGMVVYLQLPDKEATFFVPPSLSEEEVKERLKKALGDPDAPLTNLKIEEATPEELALESAGGSAGG [r6_122_JUSTAS]	0.222 ± 0.13	-0.153 ± 0.095	0.515 ± 0.2
SAGKKTITVPLKDLKKVLEELKKKYPNIKKVKIYVNGKEYEIKVGEKVKITEVIKNENGEEFVKIEIYKSAG [r5_130_TrROS_Hall]	3.31 ± 0.22	2.97 ± 0.17	3.41 ± 0.082
SAGGMKIKKITVEKNPETGELVVTVEVEINGKKYKFTFYKDGTVKVEVEVNGKKVTITLPVEELKKLSAGGS [r8_238_TrROS_Hall]	3.35 ± 0.13	2.13 ± 0.058	3.8 ± 0.063
SAGGKVKVEIDPKTIKVTFYDEKGKKIGEIEIEVKPLPIVIENIPLEDIEALKEKFPDIPIIINPDNISAGG [r13_235_TrMRF]	1.83 ± 0.2	2.47 ± 0.22	1.73 ± 0.17
SAGGSAGGSAGGAPPGAKFTVKVPSNDNVIPGSVTLGPDGGTVFHFDGPVPEGDYEIVLESAGGSAGGSAGG [r7_627_JUSTAS]	-0.643 ± 0.15	-1.63 ± 0.33	-0.362 ± 0.17
SAGGSMVLTLEEESEEGVLRVTELHFYPGEVTVTTRTFEIAPDGSVRSATESTTVIPVPPSALAEASAGGSA [r2_474_JUSTAS]	1.96 ± 0.1	1.37 ± 0.051	2.33 ± 0.038
SAGGSAGGSAMTIEVTVPPEVPEEEAAERVARALRELFPIPEIKVSVERRPDGIIKVTVEGGSAGGSAGGSA [r18_1_TrMRF]	0.888 ± 0.1	0.81 ± 0.04	0.902 ± 0.052
SAGGMPEEELTLIVRIKVYNPETGEEKEITLTITVKSEEELEKAKKLVEELEEKLKELGIKKVEIEILSAGG [r13_360_TrROS_Hall]	3.2 ± 0.26	2.92 ± 0.25	3.37 ± 0.097
SAGGSAGGSSNGITLKKPGGIEIKLPKPPSVKPVTVTTTFVFTTPDGKLVFVPKTTTLPPSLLSAGGSAGGS [r12_1027_JUSTAS]	1.83 ± 0.29	1.59 ± 0.15	2.25 ± 0.2
SAGEVAPEEIRKIAEEIAKKLGLKNVKVEVSRDEETGEITVKIEVDIPESKKEKKEELEKAIKEKLGLKSAG [r5_9_JUSTAS]	2.7 ± 0.17	1.97 ± 0.084	2.96 ± 0.094
SAGGSAGWVTFDILFPGKTIEEAKEFIEQIPPEFMNNIKKIEIDEIHPVGGWYHVTLTIEVPPGMKSAGGSA [r15_244_TrROS]	1.71 ± 0.16	0.743 ± 0.14	2.06 ± 0.049
SAGKKKIKIEIVKVEKNENGETIIRVKVKLEDGSEKEITINLDDLKNGNLKNMTAEEIAKLFPNIEIESAGG [r19_74_TrROS_Hall]	1.88 ± 0.18	2.35 ± 0.062	1.58 ± 0.084
SAGGSAGGSAGGMKTIVVPKDELEKLKEELEKKGKKVETSEDGTWTVDGKPVKVVVEPGSAGGSAGGSAGGS [r10_930_JUSTAS]	0.594 ± 0.1	0.352 ± 0.062	0.731 ± 0.032
SAGGIWIKVPDGGWVRIQIEHPGNGRPREETIPGGDIKDLIKSLSSSPDFPNYKVKIEVWDGGKPKPISAGG [r13_914_TrROS]	1.46 ± 0.14	0.923 ± 0.03	1.71 ± 0.058
